In patent publication EP3922993A1:

Target: T1, Recombinant GST-tagged hDPP3 (human) (UniProt Q9NY33)
T1 sequence: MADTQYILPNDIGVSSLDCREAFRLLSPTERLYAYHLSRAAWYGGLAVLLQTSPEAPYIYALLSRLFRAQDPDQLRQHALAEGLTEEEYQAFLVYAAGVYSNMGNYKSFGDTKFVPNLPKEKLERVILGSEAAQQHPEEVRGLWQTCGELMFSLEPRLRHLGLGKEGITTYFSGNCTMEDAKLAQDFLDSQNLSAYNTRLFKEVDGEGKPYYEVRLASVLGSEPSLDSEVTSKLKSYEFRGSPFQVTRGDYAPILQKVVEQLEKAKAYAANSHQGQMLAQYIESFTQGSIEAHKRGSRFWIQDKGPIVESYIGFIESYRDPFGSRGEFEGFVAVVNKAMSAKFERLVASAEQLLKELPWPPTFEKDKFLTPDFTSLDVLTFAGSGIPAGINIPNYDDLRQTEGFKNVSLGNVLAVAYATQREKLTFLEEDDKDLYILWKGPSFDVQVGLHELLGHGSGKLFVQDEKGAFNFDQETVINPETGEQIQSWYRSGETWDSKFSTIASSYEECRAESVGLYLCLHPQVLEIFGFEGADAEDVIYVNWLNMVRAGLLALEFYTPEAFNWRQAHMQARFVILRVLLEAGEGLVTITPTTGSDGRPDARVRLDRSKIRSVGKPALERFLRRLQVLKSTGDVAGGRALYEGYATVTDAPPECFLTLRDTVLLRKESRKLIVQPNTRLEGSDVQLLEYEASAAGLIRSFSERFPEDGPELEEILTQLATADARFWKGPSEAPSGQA
Experiment: cell-based or functional assay

- Max inhibition of hDPP3: 25%
B1: anti-DPP3 antibody clone 2555 (antibody, from another filing, V domains shown)
VH: EVQLQQSGPELVKPGASVKISCKASGYSFTGYYIHWVKQSPENSLEWIGEINPSTGGTNYNQKFKGKATLTVDKSSSTAYMQLKSLTSEESAVYYCTRSYYGIYSWFAYWGQGTLVTVSA
VL: DIKMTQSPSSMYASLGERVTITCKASQDIKSYLSWYQQKPWKSPKTLIYYATSLADGVPSRFSGSGSGQDYSLTISSLESDDTATYYCLQHGESPRTFGGGTKLEIK
